± gives the uncertainty stated by the source.
B1: Triacylglycerol hydrolase DDHD2, residues 389 to 447; numbered along this chain, O94830 (parent)
chain: TLEEDLKKLQLSEFFDIFEKEKVDKEALALCTDRDLQEIGIPLGPRKKILNYFSTRKNS

Variants of: B1
Experiment: abundance fitness (aPCA) (normalised: wild type 0, dead -1); higher = more abundant; growth selection in yeast, the domain comes from the species named
Conditions: Homo sapiens

Variant | abundance fitness
TLEEDLKKLQLSEFFDIFEKFKVDKEALALCTDRDLQEIGIPLGPRKKILNYFSTRKNS | 0.616 ± 0.11
TLEEDLKKLQLSEFFDIFEKQKVDKEALALCTDRDLQEIGIPLGPRKKILNYFSTRKNS | 0.137 ± 0.094
TLEEDLKKLQLSEFFDIFEKEKVDKEALALCTDRDLQEIGIPLGPRKKILEYFSTRKNS | 0.18 ± 0.094
TLEEDLKKLQLSEFFDIFEKEKVDKEALALCTDRDLQEIGIPLGPRKKILAYFSTRKNS | 0.151 ± 0.073
TLEEDLKKLMLSEFFDIFEKEKVDKEALALCTDRDLQEIGIPLGPRKKILNYFSTRKNS | -0.1 ± 0.074
TLEEDLKKLLLSEFFDIFEKEKVDKEALALCTDRDLQEIGIPLGPRKKILNYFSTRKNS | -0.52 ± 0.059
TLEEDLKKLYLSEFFDIFEKEKVDKEALALCTDRDLQEIGIPLGPRKKILNYFSTRKNS | -0.191 ± 0.17
TLEEDLKKLNLSEFFDIFEKEKVDKEALALCTDRDLQEIGIPLGPRKKILNYFSTRKNS | 0.011 ± 0.2
TLEEDLKKLQLSEFFDIFEKEKVDKEALANCTDRDLQEIGIPLGPRKKILNYFSTRKNS | 0.687 ± 0.086
TLEEDLKKLQLSEFFDIFEKEKVDKEALATCTDRDLQEIGIPLGPRKKILNYFSTRKNS | 0.556 ± 0.081
TLEEDLKKLQLSEFFDIFEKEKVDKEALAFCTDRDLQEIGIPLGPRKKILNYFSTRKNS | -0.031 ± 0.096
TLEEDLKKLQLSEFFDIFEKEKVDKKALALCTDRDLQEIGIPLGPRKKILNYFSTRKNS | 0.481 ± 0.088
TLEEDLKKLQLSEFFDIFEKEKVDKRALALCTDRDLQEIGIPLGPRKKILNYFSTRKNS | 0.137 ± 0.064
TLEEDLKKLQLSEFFTIFEKEKVDKEALALCTDRDLQEIGIPLGPRKKILNYFSTRKNS | -0.019 ± 0.066
TLEEDLKKLQLSEFFFIFEKEKVDKEALALCTDRDLQEIGIPLGPRKKILNYFSTRKNS | 0.015 ± 0.13
TLEEDLKKLQLSEFFQIFEKEKVDKEALALCTDRDLQEIGIPLGPRKKILNYFSTRKNS | 0.106 ± 0.072
TLEEDLKKLQLSEFFKIFEKEKVDKEALALCTDRDLQEIGIPLGPRKKILNYFSTRKNS | 0.089 ± 0.077
TLEEDLKKLQLSEFFDIFEKEKVDKEALALCTDHDLQEIGIPLGPRKKILNYFSTRKNS | 0.085 ± 0.13
TLEEDLKKLQLDEFFDIFEKEKVDKEALALCTDRDLQEIGIPLGPRKKILNYFSTRKNS | 0.037 ± 0.074
TLEEDLKKLQLSEFFDIHEKEKVDKEALALCTDRDLQEIGIPLGPRKKILNYFSTRKNS | -0.533 ± 0.22
TLEEDLKKLQLSEFFDITEKEKVDKEALALCTDRDLQEIGIPLGPRKKILNYFSTRKNS | -0.759 ± 0.12
TLEEDLKKLQLSEFFDIFEKEKVDKEALALCTDRDLQEIGIRLGPRKKILNYFSTRKNS | -0.872 ± 0.082
TLEEDLKKLQLSEFFDIFEKEKVDKEALALCTDRDCQEIGIPLGPRKKILNYFSTRKNS | -0.363 ± 0.11

Variant | abundance fitness
TLEEDLKKLQLSEFFDIFEKEKVDKEAWALCTDRDLQEIGIPLGPRKKILNYFSTRKNS | -0.383 ± 0.092
TLEEDLKKLQLSEFFDIFEKEKVDKEADALCTDRDLQEIGIPLGPRKKILNYFSTRKNS | -0.196 ± 0.12
TLEEDLKKLQLSEFFDIFEKEKVDKEAGALCTDRDLQEIGIPLGPRKKILNYFSTRKNS | -0.386 ± 0.074
TLEEDLKKLQLSEFFDIFEKEKVDKEALALCTDRDLQEIGIPLGPRKKILNFFSTRKNS | 0.172 ± 0.16
TLEEDLKKLQLSEFFDIFEKEKVDKEALALCTDRDLQEIGIPLGPRKKILNCFSTRKNS | -0.459 ± 0.13
TLEEDLKKLQLSEFFDIFEKEKVDPEALALCTDRDLQEIGIPLGPRKKILNYFSTRKNS | -0.048 ± 0.11
TLEEDLKKLQLSEFFDIFEKEKVDEEALALCTDRDLQEIGIPLGPRKKILNYFSTRKNS | 0.293 ± 0.08
TLMEDLKKLQLSEFFDIFEKEKVDKEALALCTDRDLQEIGIPLGPRKKILNYFSTRKNS | -0.002 ± 0.089
TLAEDLKKLQLSEFFDIFEKEKVDKEALALCTDRDLQEIGIPLGPRKKILNYFSTRKNS | -0.142 ± 0.063
TLEEDLKKLQLSEFFDIFEKEKVDKEALALCTDRDLQEIGIPLGPRKKDLNYFSTRKNS | -0.125 ± 0.097
TLEEDLKKLQLSEFFDIFEKEKVDKEALALCTDRDLQEIGIPLGPRKKSLNYFSTRKNS | -0.046 ± 0.079
TLEEDLKKLQLSEFFDIFEKEKVDKEALALCTDRDLQEIGIPLGPRKKCLNYFSTRKNS | -0.33 ± 0.097
TLEEDLKKLQLSEQFDIFEKEKVDKEALALCTDRDLQEIGIPLGPRKKILNYFSTRKNS | -0.205 ± 0.084
TLEEDLKKLQLSEFFDIFEKEKDDKEALALCTDRDLQEIGIPLGPRKKILNYFSTRKNS | -0.177 ± 0.094
TLEEDLKKLQLSEFFDIFEKEKYDKEALALCTDRDLQEIGIPLGPRKKILNYFSTRKNS | 0.451 ± 0.12
TLEEDLKKLQLSEFFDIFEKEKTDKEALALCTDRDLQEIGIPLGPRKKILNYFSTRKNS | -0.231 ± 0.1
TLEEDLKKLQLSEFFDIFEKEKVDKEALALCTDRKLQEIGIPLGPRKKILNYFSTRKNS | 0.313 ± 0.081
TLEEDLKKLQLSEFFDIFEKEKVDKEALALCTMRDLQEIGIPLGPRKKILNYFSTRKNS | 0.124 ± 0.095
TLEEDLKKLQLSEFFDIFEKEKVDKEALALCTARDLQEIGIPLGPRKKILNYFSTRKNS | -0.107 ± 0.075
TLEEDLKKLQLSEFFDIFEKEKVDKEALALWTDRDLQEIGIPLGPRKKILNYFSTRKNS | 0.44 ± 0.08
TLEEDLKKLQLSEFFDIFEKEKVDKEALALATDRDLQEIGIPLGPRKKILNYFSTRKNS | 0.343 ± 0.065
TLEEDLKKLQLSEFFDIFEKEKVDKEALALETDRDLQEIGIPLGPRKKILNYFSTRKNS | -0.366 ± 0.099

— the Human Domainome abundance scans (Beltran et al. 2025)
